Where two headings read alike, the source gives them in different places.
Tests used:
human IL3 [1] = target: T1, human IL3 (human, UniProt P08700 20-152); assay: cell-based or functional assay
T1 sequence: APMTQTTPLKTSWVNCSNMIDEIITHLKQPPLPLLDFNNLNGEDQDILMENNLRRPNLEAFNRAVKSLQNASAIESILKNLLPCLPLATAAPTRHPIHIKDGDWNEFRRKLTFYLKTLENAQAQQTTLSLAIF

human IL3 [2] = target: T1, human IL3; assay: cell-based or functional assay; remark: listed apart in the source

Binder | Inhibitory activity (block of IL-3 induced downregulation of CD131 on primary human basophils; chimeric P8C11 normalized to 100%) (human IL3 [1]) [%] | Inhibitory activity (block of IL-3 induced downregulation of CD131 on primary human basophils; chimeric P8C11 normalized to 100%) (human IL3 [2]) [%]
HC3 × LC3 (antibody, V domains shown) VH: QVQLVQSGAEMKKPGASVKVACKGSGFTFTDYALHWVRQAPGQRLEWMGLISTYYGDTTYNQRFKGRVTITRDTSASTAYMELSSLRSEDTAIYYCVITTVAGTDAMDYWGQGTLVTVSS VL: DIQMTQSPSSLSASVGDRVTITCHASQNINVWLSWYQQKPGKVPKLLIYKASNLHTGVPSRFSGSGSGTDFTLTISSLQPEDVATYYCQQGYSYPYTFGGGTKLEIK | 6 | –
HC11 × LC2 (antibody, V domains shown) VH: QVQLVQSGAEVKKPGASVKVACKGSGFTFTDYALHWVRQAPGQRLEWMGLISTYYGDTTYNQRFKGRVTMTADKSTSTAYMELSSLRSEDTAVYYCVITTVAGTDAMDYWGQGTLVTVSS VL: DIQMTQSPSSLSASVGDRVTITCHASQNINVWLSWYQQKPGKAPKLLIYKASNLHTGVPSRFSGSGSGTDFTFTISSLQPEDIATYYCQQGYSYPYTFGGGTKLEIK | – | 25
HC12 × LC2 (antibody, V domains shown) VH: QVQLVQSGAEVKKPGASVKVACKGSGFTFTDYALHWVRQAPGQRLEWMGLISTYYGDTTYNQRFKGRVTMTVDKSTSTAYMELSSLRSEDTAVYYCVITTVAGTDAMDYWGQGTLVTVSS VL: DIQMTQSPSSLSASVGDRVTITCHASQNINVWLSWYQQKPGKAPKLLIYKASNLHTGVPSRFSGSGSGTDFTFTISSLQPEDIATYYCQQGYSYPYTFGGGTKLEIK | – | 100
HC2 × LC2 (antibody, V domains shown) VH: QVQLVQSGSELKKPGASVKVSCKASGFTFTDYALHWVRQAPGQGLEWMGLISTYYGDTTYNQRFKGRFVFSLDTSVSTAYLQISSLKAEDTAVYYCVITTVAGTDAMDYWGQGTLVTVSS VL: DIQMTQSPSSLSASVGDRVTITCHASQNINVWLSWYQQKPGKAPKLLIYKASNLHTGVPSRFSGSGSGTDFTFTISSLQPEDIATYYCQQGYSYPYTFGGGTKLEIK | 0.5 | –
HC1 × LC3 (antibody, V domains shown) VH: QVQLVQSGAEVKKPGASVKVSCKASGFTFTDYALHWVRQAPGQRLEWMGLISTYYGDTTYNQRFKGRVTITRDTSASTAYMELSSLRSEDTAVYYCVITTVAGTDAMDYWGQGTLVTVSS VL: DIQMTQSPSSLSASVGDRVTITCHASQNINVWLSWYQQKPGKVPKLLIYKASNLHTGVPSRFSGSGSGTDFTLTISSLQPEDVATYYCQQGYSYPYTFGGGTKLEIK | 2 | –
HC15 × LC2 (antibody, V domains shown) VH: QVQLVQSGAEVKKPGASVKVACKASGFTFTDYALHWVRQAPGQRLEWMGLISTYYGDTTYNQRFKGRVTMTADKSTSTAYMELSSLRSEDTAVYYCVITTVAGTDAMDYWGQGTLVTVSS VL: DIQMTQSPSSLSASVGDRVTITCHASQNINVWLSWYQQKPGKAPKLLIYKASNLHTGVPSRFSGSGSGTDFTFTISSLQPEDIATYYCQQGYSYPYTFGGGTKLEIK | – | 8
HC1 × LC1 (antibody, V domains shown) VH: QVQLVQSGAEVKKPGASVKVSCKASGFTFTDYALHWVRQAPGQRLEWMGLISTYYGDTTYNQRFKGRVTITRDTSASTAYMELSSLRSEDTAVYYCVITTVAGTDAMDYWGQGTLVTVSS VL: DIQMTQSPSSVSASVGDRVTITCHASQNINVWLSWYQQKPGKAPKLLIYKASNLHTGVPSRFSGSGSGTDFTLTISSLQPEDFATYYCQQGYSYPYTFGGGTKLEIK | 2 | –
HC13 × LC2 (antibody, V domains shown) VH: QVQLVQSGAEVKKPGASVKVACKGSGFTFTDYALHWVRQAPGQRLEWMGLISTYYGDTTYNQRFKGRVTMTADKSSSTAYMELSSLRSEDTAVYYCVITTVAGTDAMDYWGQGTLVTVSS VL: DIQMTQSPSSLSASVGDRVTITCHASQNINVWLSWYQQKPGKAPKLLIYKASNLHTGVPSRFSGSGSGTDFTFTISSLQPEDIATYYCQQGYSYPYTFGGGTKLEIK | – | 25
HC2 × LC1 (antibody, V domains shown) VH: QVQLVQSGSELKKPGASVKVSCKASGFTFTDYALHWVRQAPGQGLEWMGLISTYYGDTTYNQRFKGRFVFSLDTSVSTAYLQISSLKAEDTAVYYCVITTVAGTDAMDYWGQGTLVTVSS VL: DIQMTQSPSSVSASVGDRVTITCHASQNINVWLSWYQQKPGKAPKLLIYKASNLHTGVPSRFSGSGSGTDFTLTISSLQPEDFATYYCQQGYSYPYTFGGGTKLEIK | 0.5 | –
HC14 × LC2 (antibody, V domains shown) VH: QVQLVQSGAEVKKPGASVKVSCKGSGFTFTDYALHWVRQAPGQRLEWMGLISTYYGDTTYNQRFKGRVTMTADKSTSTAYMELSSLRSEDTAVYYCVITTVAGTDAMDYWGQGTLVTVSS VL: DIQMTQSPSSLSASVGDRVTITCHASQNINVWLSWYQQKPGKAPKLLIYKASNLHTGVPSRFSGSGSGTDFTFTISSLQPEDIATYYCQQGYSYPYTFGGGTKLEIK | – | 25
HC2 × LC3 (antibody, V domains shown) VH: QVQLVQSGSELKKPGASVKVSCKASGFTFTDYALHWVRQAPGQGLEWMGLISTYYGDTTYNQRFKGRFVFSLDTSVSTAYLQISSLKAEDTAVYYCVITTVAGTDAMDYWGQGTLVTVSS VL: DIQMTQSPSSLSASVGDRVTITCHASQNINVWLSWYQQKPGKVPKLLIYKASNLHTGVPSRFSGSGSGTDFTLTISSLQPEDVATYYCQQGYSYPYTFGGGTKLEIK | 0.5 | –
HC1 × LC2 (antibody, V domains shown) VH: QVQLVQSGAEVKKPGASVKVSCKASGFTFTDYALHWVRQAPGQRLEWMGLISTYYGDTTYNQRFKGRVTITRDTSASTAYMELSSLRSEDTAVYYCVITTVAGTDAMDYWGQGTLVTVSS VL: DIQMTQSPSSLSASVGDRVTITCHASQNINVWLSWYQQKPGKAPKLLIYKASNLHTGVPSRFSGSGSGTDFTFTISSLQPEDIATYYCQQGYSYPYTFGGGTKLEIK | 2 | –
HC3 × LC2 (antibody, V domains shown) VH: QVQLVQSGAEMKKPGASVKVACKGSGFTFTDYALHWVRQAPGQRLEWMGLISTYYGDTTYNQRFKGRVTITRDTSASTAYMELSSLRSEDTAIYYCVITTVAGTDAMDYWGQGTLVTVSS VL: DIQMTQSPSSLSASVGDRVTITCHASQNINVWLSWYQQKPGKAPKLLIYKASNLHTGVPSRFSGSGSGTDFTFTISSLQPEDIATYYCQQGYSYPYTFGGGTKLEIK | 6 | –
HC3 × LC1 (antibody, V domains shown) VH: QVQLVQSGAEMKKPGASVKVACKGSGFTFTDYALHWVRQAPGQRLEWMGLISTYYGDTTYNQRFKGRVTITRDTSASTAYMELSSLRSEDTAIYYCVITTVAGTDAMDYWGQGTLVTVSS VL: DIQMTQSPSSVSASVGDRVTITCHASQNINVWLSWYQQKPGKAPKLLIYKASNLHTGVPSRFSGSGSGTDFTLTISSLQPEDFATYYCQQGYSYPYTFGGGTKLEIK | 6 | –

Source: US20250382362A1 (UNIVERSIT TSKLINIKUM REGENSBURG, published 2025)
